Reference: IntAct's records for PubMed 20969867

Assays:
kmt2a_human KMT2A [1] = biological target: kmt2a_human KMT2A (UniProt Q03164)
kmt2a_human KMT2A [2] = biological target: kmt2a_human KMT2A (UniProt Q03164); remark: listed apart in the source
kmt2a_human KMT2A [3] = biological target: kmt2a_human KMT2A (UniProt Q03164); remark: listed apart in the source
kmt2a_human KMT2A [4] = biological target: kmt2a_human KMT2A (UniProt Q03164); remark: listed apart in the source
kmt2a_human KMT2A [5] = biological target: kmt2a_human KMT2A (UniProt Q03164); remark: listed apart in the source
kmt2a_human KMT2A [6] = biological target: kmt2a_human KMT2A (UniProt Q03164); remark: listed apart in the source
kmt2a_human KMT2A [7] = biological target: kmt2a_human KMT2A (UniProt Q03164); remark: listed apart in the source

kmt2a_human KMT2A, sequence (Q03164 whole entry): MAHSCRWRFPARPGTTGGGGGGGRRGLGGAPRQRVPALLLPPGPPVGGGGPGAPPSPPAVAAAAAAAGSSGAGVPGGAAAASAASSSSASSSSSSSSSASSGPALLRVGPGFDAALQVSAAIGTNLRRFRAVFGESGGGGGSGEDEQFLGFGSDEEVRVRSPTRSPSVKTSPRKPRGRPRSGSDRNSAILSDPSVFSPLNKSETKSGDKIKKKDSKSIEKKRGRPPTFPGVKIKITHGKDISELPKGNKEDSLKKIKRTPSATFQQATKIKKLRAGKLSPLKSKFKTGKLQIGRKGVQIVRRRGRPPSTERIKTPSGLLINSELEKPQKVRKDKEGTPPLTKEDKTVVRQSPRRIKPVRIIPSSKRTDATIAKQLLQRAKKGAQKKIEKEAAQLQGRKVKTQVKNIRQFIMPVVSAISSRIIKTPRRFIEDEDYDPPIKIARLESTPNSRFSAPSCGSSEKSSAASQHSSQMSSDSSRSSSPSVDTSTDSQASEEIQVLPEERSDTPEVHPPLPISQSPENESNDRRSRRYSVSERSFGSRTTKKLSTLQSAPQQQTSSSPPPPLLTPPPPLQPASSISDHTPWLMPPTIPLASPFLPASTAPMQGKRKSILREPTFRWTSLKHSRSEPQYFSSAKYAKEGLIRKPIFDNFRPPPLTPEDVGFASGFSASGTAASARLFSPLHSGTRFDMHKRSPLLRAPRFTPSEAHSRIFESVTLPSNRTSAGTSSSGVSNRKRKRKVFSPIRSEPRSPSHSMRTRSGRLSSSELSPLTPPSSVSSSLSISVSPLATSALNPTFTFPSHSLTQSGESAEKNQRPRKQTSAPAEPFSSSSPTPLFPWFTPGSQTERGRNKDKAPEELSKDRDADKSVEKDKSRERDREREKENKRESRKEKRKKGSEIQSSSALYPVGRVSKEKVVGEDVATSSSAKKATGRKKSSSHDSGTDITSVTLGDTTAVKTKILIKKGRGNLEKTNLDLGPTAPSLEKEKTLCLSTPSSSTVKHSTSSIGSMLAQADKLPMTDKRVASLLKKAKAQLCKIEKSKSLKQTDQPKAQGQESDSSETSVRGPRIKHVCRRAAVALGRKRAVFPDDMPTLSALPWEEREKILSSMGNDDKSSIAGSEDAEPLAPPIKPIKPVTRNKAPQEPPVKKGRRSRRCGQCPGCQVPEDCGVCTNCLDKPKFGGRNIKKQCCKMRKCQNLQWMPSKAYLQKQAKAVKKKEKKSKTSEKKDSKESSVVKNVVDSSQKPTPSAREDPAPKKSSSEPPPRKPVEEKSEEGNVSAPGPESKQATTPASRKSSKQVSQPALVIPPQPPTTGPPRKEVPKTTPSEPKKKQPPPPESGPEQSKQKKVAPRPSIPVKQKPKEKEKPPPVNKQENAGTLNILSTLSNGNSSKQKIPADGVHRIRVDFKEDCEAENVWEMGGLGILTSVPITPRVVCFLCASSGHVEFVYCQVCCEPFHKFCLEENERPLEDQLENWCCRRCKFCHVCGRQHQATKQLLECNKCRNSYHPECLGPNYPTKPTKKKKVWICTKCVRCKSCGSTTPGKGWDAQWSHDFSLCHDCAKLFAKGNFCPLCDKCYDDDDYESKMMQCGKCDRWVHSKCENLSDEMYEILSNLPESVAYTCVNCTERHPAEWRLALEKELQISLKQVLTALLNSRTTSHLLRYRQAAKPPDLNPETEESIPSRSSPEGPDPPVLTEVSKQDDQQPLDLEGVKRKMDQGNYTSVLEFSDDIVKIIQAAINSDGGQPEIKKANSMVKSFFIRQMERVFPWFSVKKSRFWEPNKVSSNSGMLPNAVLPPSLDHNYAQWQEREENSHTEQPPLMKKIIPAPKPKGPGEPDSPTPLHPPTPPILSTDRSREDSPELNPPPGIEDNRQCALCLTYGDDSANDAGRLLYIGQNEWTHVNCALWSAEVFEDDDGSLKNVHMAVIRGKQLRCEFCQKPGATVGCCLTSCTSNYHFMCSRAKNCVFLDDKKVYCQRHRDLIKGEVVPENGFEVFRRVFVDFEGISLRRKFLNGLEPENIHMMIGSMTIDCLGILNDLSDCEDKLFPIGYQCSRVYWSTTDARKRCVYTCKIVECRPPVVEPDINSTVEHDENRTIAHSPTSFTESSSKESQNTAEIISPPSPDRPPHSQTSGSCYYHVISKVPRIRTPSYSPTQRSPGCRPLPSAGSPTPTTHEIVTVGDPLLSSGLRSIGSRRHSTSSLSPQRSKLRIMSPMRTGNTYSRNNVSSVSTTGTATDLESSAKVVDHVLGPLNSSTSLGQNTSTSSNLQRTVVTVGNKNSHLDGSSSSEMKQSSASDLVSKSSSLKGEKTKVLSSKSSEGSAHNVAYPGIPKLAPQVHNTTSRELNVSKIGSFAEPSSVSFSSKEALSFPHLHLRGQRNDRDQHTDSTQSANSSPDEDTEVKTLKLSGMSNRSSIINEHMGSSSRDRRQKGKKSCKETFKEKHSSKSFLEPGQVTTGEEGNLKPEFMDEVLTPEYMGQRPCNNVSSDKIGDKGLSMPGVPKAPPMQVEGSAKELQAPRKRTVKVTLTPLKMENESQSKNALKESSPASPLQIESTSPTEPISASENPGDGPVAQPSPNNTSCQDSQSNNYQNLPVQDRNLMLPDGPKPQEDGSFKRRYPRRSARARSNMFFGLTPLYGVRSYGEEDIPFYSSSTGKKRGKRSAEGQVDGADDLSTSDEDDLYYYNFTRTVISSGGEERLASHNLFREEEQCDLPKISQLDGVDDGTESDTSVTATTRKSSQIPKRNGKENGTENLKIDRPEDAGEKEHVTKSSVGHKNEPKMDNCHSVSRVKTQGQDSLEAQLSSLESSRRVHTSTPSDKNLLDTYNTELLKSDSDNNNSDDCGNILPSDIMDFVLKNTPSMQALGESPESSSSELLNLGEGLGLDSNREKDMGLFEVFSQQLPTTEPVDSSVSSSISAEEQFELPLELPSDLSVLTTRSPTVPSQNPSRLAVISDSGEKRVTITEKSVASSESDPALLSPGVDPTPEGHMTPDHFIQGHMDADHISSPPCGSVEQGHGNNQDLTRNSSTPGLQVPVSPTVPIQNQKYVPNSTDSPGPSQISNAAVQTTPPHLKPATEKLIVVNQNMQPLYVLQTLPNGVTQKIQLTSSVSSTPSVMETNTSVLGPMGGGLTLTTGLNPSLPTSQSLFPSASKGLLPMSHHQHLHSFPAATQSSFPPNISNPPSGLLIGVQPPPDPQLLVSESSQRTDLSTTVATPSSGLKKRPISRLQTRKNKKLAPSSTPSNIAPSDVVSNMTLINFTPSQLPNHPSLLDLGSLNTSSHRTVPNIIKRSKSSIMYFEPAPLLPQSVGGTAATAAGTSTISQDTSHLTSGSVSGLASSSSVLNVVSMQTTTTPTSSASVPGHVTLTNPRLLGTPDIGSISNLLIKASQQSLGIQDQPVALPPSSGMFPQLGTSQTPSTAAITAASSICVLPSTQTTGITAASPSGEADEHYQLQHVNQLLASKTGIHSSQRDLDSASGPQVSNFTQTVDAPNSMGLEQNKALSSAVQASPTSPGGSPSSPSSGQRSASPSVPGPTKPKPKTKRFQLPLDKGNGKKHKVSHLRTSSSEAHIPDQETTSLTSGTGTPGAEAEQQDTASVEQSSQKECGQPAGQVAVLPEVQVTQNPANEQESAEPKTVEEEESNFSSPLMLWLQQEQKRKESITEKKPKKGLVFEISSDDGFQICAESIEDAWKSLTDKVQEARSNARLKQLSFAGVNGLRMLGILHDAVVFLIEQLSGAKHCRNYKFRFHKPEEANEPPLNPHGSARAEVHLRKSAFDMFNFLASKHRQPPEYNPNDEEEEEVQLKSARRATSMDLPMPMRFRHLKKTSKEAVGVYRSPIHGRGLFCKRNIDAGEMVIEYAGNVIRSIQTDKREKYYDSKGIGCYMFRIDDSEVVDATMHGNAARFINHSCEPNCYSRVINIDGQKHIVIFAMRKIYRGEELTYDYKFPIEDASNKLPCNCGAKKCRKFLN

Histone lysine acetyltransferase CREBBP (Mus musculus), P45481 F612A
effect of a mutation on the interaction (kmt2a_human KMT2A [1]): decreasing interaction

Histone lysine acetyltransferase CREBBP (Mus musculus), P45481 L628A
effect of a mutation on the interaction (kmt2a_human KMT2A [2]): disrupting interaction
effect of a mutation on the interaction (kmt2a_human KMT2A [3]): decreasing interaction

Histone lysine acetyltransferase CREBBP (Mus musculus), P45481 L664A
effect of a mutation on the interaction (kmt2a_human KMT2A [4]): decreasing interaction

Histone lysine acetyltransferase CREBBP (Mus musculus), P45481 R624A
effect of a mutation on the interaction (kmt2a_human KMT2A [5]): decreasing interaction

Histone lysine acetyltransferase CREBBP (Mus musculus), P45481 R668A
effect of a mutation on the interaction (kmt2a_human KMT2A [6]): decreasing interaction

Histone lysine acetyltransferase CREBBP (Mus musculus), P45481 Y631A
effect of a mutation on the interaction (kmt2a_human KMT2A [7]): decreasing interaction
